Substrate in the series: O=[N+]([O-])c1ccc(O[C@@H]2O[C@H](CO)[C@@H](O)[C@H](O)[C@H]2O)cc1
Kind of series: purified protein. Particulars: pH 6.0 sodium phosphate 50 mM, 37 °C, 0.1-5 mM substrate.

B1: BglF3 (Flavobacterium johnsoniae UW101) (protein)
chain: KNKMIYLSAALVFAFFTSCKNETQTSASNSSQTEEYVGKEISTDHDAEIDKLISQMTLEEKIGMLHGNSMFANAGVKRLGIPELKMADGPLGVREEISRDNWAPAGWTNDFATYYPAGGALAATWNAEMAHTFGTSLGEELRARDKDMLLSPAINMVRTPLGGRTYEYMSEDPFLNKKIAVPLVVGLQEKDVMACVKHYAANNQETNRDFVDVQIDERTLREIYLPAFEATVKEAKAYSIMGAYNKFRGEYLCENDYMLNKILRDEWGFKGVVVSDWAAVHSTAKSLKNGLDIEMGTPKPFNEFFLADKLIAAVKSGEVSEKEIDLHVKRILRVLFQVKAMGGGERAKGSIATEAHYQDAYKIAAEAIILLKNENNALPLKLDGVKSIAVIGNNATKKNALGGFGAGVKTKREVTPLEGLKNRLPSSVKINYAEGYLEKYEEKNKGNLGNITSTGPVTIDKLDPAKVQEAVEAAKKSDVAIIFAGSNRDYETEASDRRDLHLPFGQEELIKKVIEANPKTIVVMIAGAPFDLNEVSQKSSALVWSWFNGSEGGNALADVILGKVNPSGKLPWTMPKQLKDSPAHATNSFPGDKAVNYAEGILIGYRWFDTKNVAPLYPFGYGLSYTTFALDNAKTDKDSYAQNDVIEVTVDVKNTGKVDGKEVVQLYTSKSDSKITRAAQELKGFKKADVKAGGSEKITIKVPVKELAYYDVAAKKWTVEPGKYTIKLGTSSRDIKKEINFTIK
B1: the Km (as a rule, the substrate concentration at which the rate is half of its maximum) was 910 ± 20 µM.

For the origin of these results see publication PMC3659600.
